Data on one molecule can be found in publication PMC10815899 (2024).

One may read the Kd as the constant that tells how readily two partners part at equilibrium. Lower therefore signals higher affinity. One may read the koff as a measure of how fast the partners let go of each other. A high value points to a short-lived complex.

Assay [1] addresses T1, epithelial adhesin 6 of N. glabratus (N. glabratus (endogenous), UniProt Q6FX55 1-715).
T1 chain: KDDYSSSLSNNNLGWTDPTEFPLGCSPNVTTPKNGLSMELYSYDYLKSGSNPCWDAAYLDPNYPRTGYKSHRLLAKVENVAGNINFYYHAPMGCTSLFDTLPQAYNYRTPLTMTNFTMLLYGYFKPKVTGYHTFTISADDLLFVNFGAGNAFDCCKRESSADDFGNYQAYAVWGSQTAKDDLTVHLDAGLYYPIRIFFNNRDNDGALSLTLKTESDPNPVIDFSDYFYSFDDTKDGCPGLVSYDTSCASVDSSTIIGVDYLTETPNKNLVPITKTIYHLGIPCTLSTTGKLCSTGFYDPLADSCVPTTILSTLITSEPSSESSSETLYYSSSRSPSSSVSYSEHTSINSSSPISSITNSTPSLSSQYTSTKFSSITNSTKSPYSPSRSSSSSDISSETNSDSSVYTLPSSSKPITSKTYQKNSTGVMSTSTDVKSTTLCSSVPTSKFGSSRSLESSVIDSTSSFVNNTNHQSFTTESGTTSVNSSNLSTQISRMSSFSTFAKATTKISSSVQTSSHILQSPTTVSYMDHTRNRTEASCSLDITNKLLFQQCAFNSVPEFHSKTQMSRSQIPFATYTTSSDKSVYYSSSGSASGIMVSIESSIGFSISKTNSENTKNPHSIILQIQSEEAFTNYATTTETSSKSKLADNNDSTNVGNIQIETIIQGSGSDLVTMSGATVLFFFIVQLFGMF
Description: BLI. In general terms: Biolayer interferometry detects binding as a change in optical thickness at a sensor tip.

The target in assay [2] is T1, epithelial adhesin 6 of N. glabratus. Description: SPR. Background: In SPR one partner is held on a chip, and binding of the other changes the refractive index at the surface.
Assay [3] has the same target. Description: BLI.

B1: cytoplasmic Nakaseomyces glabratus glyceraldehyde 3-phosphate dehydrogenase (enzyme)
chain: MVRIAINGFGRIGRLVLRVALSRSNIEVVAVNDPFITTDYAAYMFKYDSTHGRYAGEVTHDDKHIIIDGKKIAVHQERDPANLPWGSENIDIAIDSTGVFKELDTAQKHIDAGAKKVVITAPSSTAPMFVVGVNEDKYTSDLKIVSNASCTTNCLAPLAKVIDEAFGIEEGLMTTVHSLTATQKTVDGPSHKDWRGGRTASGNIIPSSTGAAKAVGKVLPQLQGKLTGMAFRVPTVDVSVVDLTVKLQKETTYDEIKKVIKQASEGKLKGVLGYTEDAVVSSDFLGDSRSSIFDASAGIQLSPKFVKLVSWYDNEYGYSTRVVDLVEHVAKN
modifications: biotin (NHS-biotin) in the microplate ligand-binding assays
B1 displayed an equilibrium dissociation constant (Kd) in assay [1] of 6.89 nM. The koff in assay [2] is 0.000209 s⁻¹; in assay [3], 0.00195 s⁻¹.
